Data as given in patent US20220143148A1, “COMPOSITIONS AND METHODS FOR MODULATING CGRP SIGNALING TO REGULATE INTESTINAL INNATE LYMPHOID CELLS” (The Broad Institute, Inc., priority 2019, published 2022).

Test system: small intestinal immune cells
Assay: Droplet-based scRNA-seq of small intestinal immune cells (LP and PP), OVA vs PBS, clustering and differential expression
Format: in vivo, mouse
Details: PP, cluster ID 8
Excerpt: To comprehensively characterize small intestinal immune cells, Applicants generated scRNA-Seq profiles for 58,067 immune cells collected from lamina propria (LP) and Peyer's patch (PP) regions at steady state and after induction of a type 2 inflammatory reaction to ovalbumin (OVA) (Brandt et al., 2003) (FIGS. 1A and 8A). To ensure sufficient representation of rare cells, Applicants combined a normalization strategy—removing by flow sorting either a portion of IgD+ naïve B cells, which are the most abundant cell type in PPs, or all CD19+ and CD3+ T cells (FIG. 8B, Methods)—with profiling of a sufficiently large number of cells number (P>0.99 to recover at least 15 cells from each cluster, Methods) by massively parallel scRNA-seq (Haber et al., 2017) (Methods). Applicants obtained 36,797 and 21,270 high quality cells passing initial filtering (Methods) from PP and LP regions, respectively.
Overall, Applicants annotated 27 cell subsets across the two compartments, spanning T cells, B cells, ILCs, dendritic cells (DCs), myeloid cells and stromal cells, in frequencies ranging from 0.07% to 14%. Briefly, Applicants first partitioned the cells from the PP regions by unsupervised clustering (Methods) into 46 clusters, retained the 97% of cells that were robustly assigned cell identities in each cluster (Methods), assigned the cells from the LP regions to the 46 clusters using a classifier (Methods), and visualized the data with scvis (Ding et al., 2018), a deep generative model-based method (FIGS. 1B and 8C, Methods). Next, Applicants identified genes that were differentially expressed between the cells in each cluster and the remaining cells (Table 1, Methods), as well as between pairs of clusters (Table 2), to elucidate identities of similar cell types/states. Applicants excluded from downstream analysis clusters mostly consisting of contaminants from epithelium, likely doublets, or cells with a small number of Unique Molecular Identifiers (UMIs) (FIGS. 1C and 8D), or lacking distinct markers (Methods). Altogether, Applicants retained 27 clusters spanning 85% of the cells and each associated with distinct marker genes (FIG. 8E, Methods).
To induce allergic reaction to OVA, 6 to 7 weeks old mice were sensitized twice, two weeks apart, with 50 μg of OVA plus 1 mg of aluminum potassium sulfate adjuvant via intraperitoneal injection. Two weeks later, mice were orally administered with 50 mg of OVA on every other day for a total of five times. 1 μg of α-CGRP peptide was administered simultaneously when indicated. Mice were deprived of food for 3-4 hours in cages with wood chip bedding for limiting antigen degradation in the stomach before each intragastric challenge.
Isolation of cells from Peyer's patches (PPs). Peyer's patches (PPs) were carefully dissected from the small intestine under a stereo microscope using a fine scissor, pierced once with a fine forcep. Tissues were digested in freshly made digestion buffer (RPMI-1640 containing 100 μg/ml Liberase™ and 50 μg/ml DNase I at 37° C. on a roto-mixer. After 15 min, tissues were very gently mixed using a 1 ml pipette. The supernatant was collected and added to ice-cold MACS buffer (pH 7.4; PBS plus 2% FCS and 2 mM EDTA). Pre-warmed (37° C.) fresh digestion buffer was added to the remaining tissues. After rotation at 37° C. for 15 min, the mixture was vigorously mixed using a 1 ml pipette for 1 min. Supernatants from the two steps were combined and passed through 70 μm filters and stained for FACS (below).
Isolation of cells from the lamina propria (LP). The small intestines were opened longitudinally and washed in ice-cold PBS. For scRNA-seq, roughly 0.5 cm of fragments from each of the distal, middle and proximal regions without visible PPs were collected. Epithelial cells were dissociated by tissue rotation in pre-warmed (37° C.) PBS containing 10 mM EDTA at 37° C. for 15 min, followed by additional incubation on ice for 15 min. Tissues were then shaken vigorously. […]

B1: OVA (protein, UniProt P01012 2-386, looked up)
Ovalbumin: GSIGAASMEFCFDVFKELKVHHANENIFYCPIAIMSALAMVYLGAKDSTRTQINKVVRFDKLPGFGDSIEAQCGTSVNVHSSLRDILNQITKPNDVYSFSLASRLYAEERYPILPEYLQCVKELYRGGLEPINFQTAADQARELINSWVESQTNGIIRNVLQPSSVDSQTAMVLVNAIVFKGLWEKAFKDEDTQAMPFRVTEQESKPVQMMYQIGLFRVASMASEKMKILELPFASGTMSMLVLLPDEVSGLEQLESIINFEKLTEWTSSNVMEERKIKVYLPRMKMEEKYNLTSVLMAMGITDVFSSSANLSGISSAESLKISQAVHAAHAEINEAGREVVGSAEAGVDAASVSEEFRADHPFLFCIKHIATNAVLFFGRCVSP
Rab35 percentage of expressing cells in OVA-treated group: 0.207
Rac2 percentage of expressing cells in OVA-treated group: 0.97
Rel percentage of expressing cells in OVA-treated group: 0.139
Rgs1 percentage of expressing cells in OVA-treated group: 0.699
Rnf125 percentage of expressing cells in OVA-treated group: 0.167
Rnf157 percentage of expressing cells in OVA-treated group: 0.188
Rora percentage of expressing cells in OVA-treated group: 0.161
Rrad percentage of expressing cells in OVA-treated group: 0.191
Rsrp1 percentage of expressing cells in OVA-treated group: 0.559
Samd9l percentage of expressing cells in OVA-treated group: 0.176
Samsn1 percentage of expressing cells in OVA-treated group: 0.324
Sh2d1a percentage of expressing cells in OVA-treated group: 0.488
Sik1 percentage of expressing cells in OVA-treated group: 0.161
Skil percentage of expressing cells in OVA-treated group: 0.207
Sla percentage of expressing cells in OVA-treated group: 0.335
Slfn2 percentage of expressing cells in OVA-treated group: 0.408
Sp100 percentage of expressing cells in OVA-treated group: 0.537
Taf10 percentage of expressing cells in OVA-treated group: 0.347
Tfam percentage of expressing cells in OVA-treated group: 0.19
Tgif1 percentage of expressing cells in OVA-treated group: 0.305
Tm6sf1 percentage of expressing cells in OVA-treated group: 0.454
Traf1 percentage of expressing cells in OVA-treated group: 0.464
Tsc22d3 percentage of expressing cells in OVA-treated group: 0.664
Tuba4a percentage of expressing cells in OVA-treated group: 0.191
Txndc5 percentage of expressing cells in OVA-treated group: 0.239
Txnip percentage of expressing cells in OVA-treated group: 0.398
Ube2s percentage of expressing cells in OVA-treated group: 0.478
VgIl4 percentage of expressing cells in OVA-treated group: 0.47
Vps37b percentage of expressing cells in OVA-treated group: 0.79
Zc3h12a percentage of expressing cells in OVA-treated group: 0.182
Zfp36l2 percentage of expressing cells in OVA-treated group: 0.84
Zfp512 percentage of expressing cells in OVA-treated group: 0.446
AW112010 LN (average fold change) (OVA vs PBS): 0.208
AY036118 LN (average fold change) (OVA vs PBS): −0.339
Actr3 LN (average fold change) (OVA vs PBS): 0.315
Alyref LN (average fold change) (OVA vs PBS): −0.597
Amd1 LN (average fold change) (OVA vs PBS): −0.426
Arf4 LN (average fold change) (OVA vs PBS): −0.186
Arfrp1 LN (average fold change) (OVA vs PBS): 0.609
Arl6ip1 LN (average fold change) (OVA vs PBS): 0.367
Arl6ip5 LN (average fold change) (OVA vs PBS): 0.344
Arpc5l LN (average fold change) (OVA vs PBS): 0.383
Arrb2 LN (average fold change) (OVA vs PBS): 0.295
Ash1l LN (average fold change) (OVA vs PBS): 0.491
B2m LN (average fold change) (OVA vs PBS): 0.159
Bcl2 LN (average fold change) (OVA vs PBS): 0.286
Bcl2a1b LN (average fold change) (OVA vs PBS): −0.507
Bcl2l11 LN (average fold change) (OVA vs PBS): −0.208
Bhlhe40 LN (average fold change) (OVA vs PBS): −0.159
Cap1 LN (average fold change) (OVA vs PBS): 0.235
Ccr2 LN (average fold change) (OVA vs PBS): 0.330
Cd47 LN (average fold change) (OVA vs PBS): 0.262
Cd69 LN (average fold change) (OVA vs PBS): −0.386
Cd74 LN (average fold change) (OVA vs PBS): −0.187
Cdk2ap1 LN (average fold change) (OVA vs PBS): −0.673
Cdkn1a LN (average fold change) (OVA vs PBS): −0.980
Cdv3 LN (average fold change) (OVA vs PBS): −0.281
Cks2 LN (average fold change) (OVA vs PBS): −0.601
Clec2d LN (average fold change) (OVA vs PBS): 0.391
Coq10b LN (average fold change) (OVA vs PBS): −0.426
Crem LN (average fold change) (OVA vs PBS): −0.681
Csrp1 LN (average fold change) (OVA vs PBS): −0.437
Ctla2a LN (average fold change) (OVA vs PBS): 0.372
Cxcr4 LN (average fold change) (OVA vs PBS): 0.544
Ddx21 LN (average fold change) (OVA vs PBS): −0.379
Defa24 LN (average fold change) (OVA vs PBS): −0.967
Dgat1 LN (average fold change) (OVA vs PBS): −0.352
Dusp1 LN (average fold change) (OVA vs PBS): −0.244
Eef2 LN (average fold change) (OVA vs PBS): 0.257
Egr1 LN (average fold change) (OVA vs PBS): −0.640
Eif4a2 LN (average fold change) (OVA vs PBS): 0.300
Emb LN (average fold change) (OVA vs PBS): −0.223
Fam105a LN (average fold change) (OVA vs PBS): 0.376
Fasl LN (average fold change) (OVA vs PBS): 0.296
Fcer1g LN (average fold change) (OVA vs PBS): 0.170
